Data: PMC10983791

Assays:
[1] = substrate: C[S+](CC[C@H](N)C(=O)[O-])C[C@H]1O[C@@H](n2cnc3c(N)ncnc32)[C@H](O)[C@@H]1O; assay: KM determination by method of initial rates, COMT; type: biochemical, human; conditions: other: COMT; substrate 100 μM; MTase-Glo readout; pH 8.0
[2] = substrate: NC[C@H](O)c1ccc(O)c(O)c1; assay: KM determination by method of initial rates, COMT; type: biochemical, human; conditions: other: COMT; SAM 100 μM; MTase-Glo readout; pH 8.0
[3] = substrate: C[S+](CC[C@H](N)C(=O)[O-])C[C@H]1O[C@@H](n2cnc3c(N)ncnc32)[C@H](O)[C@@H]1O; assay: KM determination by method of initial rates, PNMT; type: biochemical, human; conditions: other: PNMT; norepinephrine 100 μM; pH 8.0
[4] = substrate: NC[C@H](O)c1ccc(O)c(O)c1; assay: KM determination by method of initial rates, PNMT; type: biochemical, human; conditions: other: PNMT; SAM 100 μM; fit to substrate inhibition model; pH 8.0
[5] = substrate: C[S+](CC[C@H](N)C(=O)[O-])C[C@H]1O[C@@H](n2cnc3c(N)ncnc32)[C@H](O)[C@@H]1O; assay: KM determination by method of initial rates, GNMT; type: biochemical, human; conditions: other: GNMT; substrate 100 μM; MTase-Glo readout; pH 8.0
[6] = substrate: NC(=O)c1cccnc1; assay: purified protein, by the assay type; conditions: other: NNMT; SAM 100 μM; MTase-Glo readout; pH 8.0
[7] = substrate: C[S+](CC[C@H](N)C(=O)[O-])C[C@H]1O[C@@H](n2cnc3c(N)ncnc32)[C@H](O)[C@@H]1O; assay: KM determination by method of initial rates, NNMT; type: biochemical, human; conditions: other: NNMT; substrate 100 μM; MTase-Glo readout; pH 8.0
[8] = substrate: NCCc1c[nH]cn1; assay: purified protein, by the assay type; conditions: other: HNMT; SAM 100 μM; MTase-Glo readout; pH 8.0
[9] = substrate: C[S+](CC[C@H](N)C(=O)[O-])C[C@H]1O[C@@H](n2cnc3c(N)ncnc32)[C@H](O)[C@@H]1O; assay: KM determination by method of initial rates, HNMT; type: biochemical, human; conditions: other: HNMT; substrate 100 μM; MTase-Glo readout; pH 8.0

B1: COMT (Homo sapiens) (protein)
chain: MPEAPPLLLAAVLLGLVLLVVLLLLLRHWGWGLCLIGWNEFILQPIHNLLMGDTKEQRILNHVLQHAEPGNAQSVLEAIDTYCEQKEWAMNVGDKKGKIVDAVIQEHQPSVLLELGAYCGYSAVRMARLLSPGARLITIEINPDCAAITQRMVDFAGVKDKVTLVVGASQDIIPQLKKKYDVDTLDMVFLDHWKDRYLPDTLLLEECGLLRKGTVLLADNVICPGAPDFLAHVRGSSCFECTHYQSFLEYREVVDGLEKAIYKGPGSEAGP
[1]
  Km: 14.5 ± 1.8 µM
[2]
  Km: 13.7 ± 2.2 µM

B2: PNMT (Homo sapiens) (protein)
chain: MSGADRSPNAGAAPDSAPGQAAVASAYQRFEPRAYLRNNYAPPRGDLCNPNGVGPWKLRCLAQTFATGEVSGRTLIDIGSGPTVYQLLSACSHFEDITMTDFLEVNRQELGRWLQEEPGAFNWSMYSQHACLIEGKGECWQDKERQLRARVKRVLPIDVHQPQPLGAGSPAPLPADALVSAFCLEAVSPDLASFQRALDHITTLLRPGGHLLLIGALEESWYLAGEARLTVVPVSEEEVREALVRSGYKVRDLRTYIMPAHLQTGVDDVKGVFFAWAQKVGL
[3]
  Km: 3.6 ± 0.6 µM
[4]
  Km: 16.2 ± 4.3 µM

B3: GNMT (Homo sapiens) (protein)
chain: MVDSVYRTRSLGVAAEGLPDQYADGEAARVWQLYIGDTRSRTAEYKAWLLGLLRQHGCQRVLDVACGTGVDSIMLVEEGFSVTSVDASDKMLKYALKERWNRRHEPAFDKWVIEEANWMTLDKDVPQSAEGGFDAVICLGNSFAHLPDCKGDQSEHRLALKNIASMVRAGGLLVIDHRNYDHILSTGCAPPGKNIYYKSDLTKDVTTSVLIVNNKAHMVTLDYTVQVPGAGQDGSPGLSKFRLSYYPHCLASFTELLQAAFGGKCQHSVLGDFKPYKPGQTYIPCYFIHVLKRTD
[5]
  Km: 12.1 ± 3.6 µM

B4: NNMT (Homo sapiens) (protein)
chain: MESGFTSKDTYLSHFNPRDYLEKYYKFGSRHSAESQILKHLLKNLFKIFCLDGVKGDLLIDIGSGPTIYQLLSACESFKEIVVTDYSDQNLQELEKWLKKEPEAFDWSPVVTYVCDLEGNRVKGPEKEEKLRQAVKQVLKCDVTQSQPLGAVPLPPADCVLSTLCLDAACPDLPTYCRALRNLGSLLKPGGFLVIMDALKSSYYMIGEQKFSSLPLGREAVEAAVKEAGYTIEWFEVISQSYSSTMANNEGLFSLVARKLSRPL
[6]
  Km: 3.8 ± 0.5 µM
[7]
  Km: 11.9 ± 5.7 µM

B5: HNMT (Homo sapiens) (protein)
chain: MASSMRSLFSDHGKYVESFRRFLNHSTEHQCMQEFMDKKLPGIIGRIGDTKSEIKILSIGGGAGEIDLQILSKVQAQYPGVCINNEVVEPSAEQIAKYKELVAKTSNLENVKFAWHKETSSEYQSRMLEKKELQKWDFIHMIQMLYYVKDIPATLKFFHSLLGTNAKMLIIVVSGSSGWDKLWKKYGSRFPQDDLCQYITSDDLTQMLDNLGLKYECYDLLSTMDISDCFIDGNENGDLLWDFLTETCNFNATAPPDLRAELGKDLQEPEFSAKKEGKVLFNNTLSFIVIEA
[8]
  Km: 5.3 ± 2.1 µM
[9]
  Km: 9.3 ± 2.1 µM
